The text below walks through data of US20170267755A1 (SRI INTERNATIONAL, published 2017).

This assay deals with T1, human mesothelin expressed on the plasma membrane of cells (HeLa, OVCAR-3, SK-OV-3, A1847) (human, UniProt Q13421 296-598).
T1 construct: whole, on cells; GPI-linked cell-surface form on human cell lines and on A1847 spheroid sections and tumors; also called Msln
Put plainly: flow cytometry on HeLa cells, chemically biotinylated Nb, PE-streptavidin, double-reciprocal fit. The procedure:
In specific experimental embodiments, the affinity of the two Nbs, Nb A1 and Nb C6, can determined by flow cytometry using HeLa cells. Binding to HeLa cells can be detected using flow cytometry after incubation with various concentrations of biotinylated Nbs followed by PE-labeled streptavidin. KD values are determined by the equation KD=a *Fₘₐₓ in which “a” is the regression line and Fₘₐₓ is the maximum of fluorescence. […] In addition, the higher affinity and maximum mean fluorescence intensity (MFI) achieved with Nb A1 is consistent with its predominant representation in the phage display output and the larger fluorescence shift seen with flow cytometry.
Briefly, fifty μg of each Nb are biotinylated chemically using the EZ-Link Micro NHSPEO4-Biotinylation Kit. After incubation of mesothelin-positive HeLa cells (5×10⁵) with various concentrations of biotinylated Nbs for one hour at four degrees C. under shaking (nine hundred rpm), Nbs binding is detected by flow cytometry following incubation with (PE)-labeled streptavidin. The KD values are determined by the equation: […]
On the technique in general: A flow cytometer gives signals particle by particle.

T1 sequence (Q13421 other isoform, or with tags, fused parts or gaps limits assumed): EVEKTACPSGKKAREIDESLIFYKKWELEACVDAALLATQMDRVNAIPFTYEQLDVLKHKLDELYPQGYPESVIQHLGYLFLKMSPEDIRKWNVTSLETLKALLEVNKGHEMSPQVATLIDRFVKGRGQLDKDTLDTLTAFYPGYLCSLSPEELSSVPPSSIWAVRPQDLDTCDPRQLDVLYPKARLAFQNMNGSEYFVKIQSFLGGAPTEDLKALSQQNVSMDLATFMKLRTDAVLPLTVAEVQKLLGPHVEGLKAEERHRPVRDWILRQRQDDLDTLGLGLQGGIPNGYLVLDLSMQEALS

B1: Nb C6 (VHH)
VHH: QAGGSLRLSCAPSGSIFGIRTMDWYRQAPGKERELVARITMDGRVFHADSVKGRFSGSRDGASNAVYLQMNSLKPDDTAVYYCRYSGLTSREDYWGP
notes: Llama VHH made in the E. coli periplasm with a C-terminal His tag; also called F10; not shown: C-terminal hexahistidine tag
A word on the Kd: it is the concentration at which binding is half-saturated. Molecule B1 gave a Kd of 30 nM.

B2: Nb A1 (VHH)
VHH: HPGGSLRLSCAASGIDLSLYRMRWYRQAPGKERDLVALITDDGTSYYEDSVKGRFTITRDNPSNKVFLQMNSLKPEDTAVYYCNAETPLSPVNYWGQ
notes: Llama VHH made in the E. coli periplasm with a C-terminal His tag; also called G3A; G3a; not shown: C-terminal hexahistidine tag
For the molecule B2, the Kd was roughly 15 nM.
